This note sets out measurements from patent publication US20140303084.

Series [1] deals with T1, compound 5.
T1 chain: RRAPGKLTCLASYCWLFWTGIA

Series [2] addresses T2, compound 1 (not fully specified).
T2 chain: KLTCLASYCWLF

B1: human Factor VIIa (protein)
chain: ANAFLEELRPGSLERECKEEQCSFEEAREIFKDAERTKLFWISYSDGDQCASSPCQNGGSCKDQLQSYICFCLPAFEGRNCETHKDDQLICVNENGGCEQYCSDHTGTKRSCRCHEGYSLLADGVSCTPTVEYPCGKIPILEKRNASKPQGRIVGGKVCPKGECPWQVLLLVNGAQLCGGTLINTIWVVSAAHCFDKIKNWRNLIAVLGEHDLSEHDGDEQSRRVAQVIIPSTYVPGTTNHDIALLRLHQPVVLTDHVVPLCLPERTFSERTLAFVRFSLVSGWGQLLDRGATALELMVLNVPRLMTQDCLQQSRKVGDSPNITEYMFCAGYSDGSKDSCKGDSGGPHATHYRGTWYLTGIVSWGQGCATVGHFGVYTRVSQYIEWLQKLMRSEPRPGVLLRAPFP
In series [1], B1 yielded a Δ kM of FVIIa, FXa generation assay of 0.3 and a Δ kcat of FVIIa, FXa generation assay of 2420 fold.

B2: mouse FIXa (protein)
chain: YNSGKLEEFVRGNLERECIEERCSFEEAREVFENTEKTTEFWKQYVDGDQCESNPCLNGGICKDDISSYECWCQVGFEGRNCELDATCNIKNGRCKQFCKNSPDNKVICSCTEGYQLAEDQKSCEPTVPFPCGRASISYSSKKITRAETVFSNMDYENSTEAVFIQDDITDGAILNNVTESSESLNDFTRVVGGENAKPGQIPWQVILNGEIEAFCGGAIINEKWIVTAAHCLKPGDKIEVVAGEYNIDKKEDTEQRRNVIRTIPHHQYNATINKYSHDIALLELDKPLILNSYVTPICVANREYTNIFLKFGSGYVSGWGKVFNKGRQASILQYLRVPLVDRATCLRSTTFTIYNNMFCAGYREGGKDSCEGDSGGPHVTEVEGTSFLTGIISWGEECAMKGKYGIYTKVSRYVNWIKEKTKLT
For the protein B2, the “Vmax, FXa generation assay” value in series [2] is reported as “the Vmax is greatly reduced with mFIXa compared to hFIXa”.
